From patent US20240301429A1

target: AP-VEGF165 (human) (UniProt P15692); assay: saturation binding, trap coated on plate, AP-VEGF165 titrated, AP chemiluminescence
Sequence (P15692 other isoform, or with tags, fused parts or gaps): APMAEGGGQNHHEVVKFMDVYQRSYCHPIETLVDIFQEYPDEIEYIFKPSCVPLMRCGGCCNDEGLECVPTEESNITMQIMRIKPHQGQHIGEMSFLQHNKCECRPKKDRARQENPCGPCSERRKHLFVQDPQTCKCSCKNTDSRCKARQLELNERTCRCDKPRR

Kd | Binder
20.1 nM | NRP1 trap M (receptor) FRNDKCGDTIKIESPGYLTSPGYPHSYHPSEKCEWLIQAPDPYQRIMINFNPHFDLEDRDCKYDYVEVFDGENENGHFRGKFCGKIAPPPVVSSGPFLFIKFVSDYETHGAGFSIRYELFKRGPECSQNYTTPSGVIKSPGFPEKYPNSLECTYIVFAPKMSEIILEFESFDLEPDSNPPGGMFCRYDRLEIWDGFPDVGPHIGRYCGQKTPGRIRSSSGILSMVFYTDSAIAKEGFSANYSVLQSSVSEDFKCMEALGMESGEIHSDQITASSQYSTNWSAERSRLNYPENGWTPGEDSYREWIQVDLGLLRFVTAVGTQGAISKETKKKYYVKTYKIDVSSNGEDWITIKEGNKPVLFQGNTNPTDVVVAVFPKPLITRFVRIKPATWETGISMRFEVYGCRSGSKENLYFQG
67 nM | NRP1 trap Z (receptor) FRNDKCGDTIKIESPGYLTSPGYPHSYHPSEKCEWLIQAPDPYQRIMINFNPHFDLEDRDCKYDYVEVFDGENENGHFRGKFCGKIAPPPVVSSGPFLFIKFVSDYETHGAGFSIRYELFKRGPECSQNYTTPSGVIKSPGFPEKYPNSLECTYIVFAPKMSEIILEFESFDLEPDSNPPGGMFCRYDRLEIWDGFPDVGPHIGRYCGQKTPGRIRSSSGILSMVFYTDSAIAKEGFSANYSVLQSSVSEDFKCMEALGMESGEIHSDQITASSQYSTNWSAERSRLNYPENGWTPGKKSYREWIQVDLGLLRFVTAVGTQGAISKETKKKYYVKTYKIDVSSNGEDWITIKEGNKPVLFQGNTNPTDVVVAVFPKPLITRFVRIKPATWETGISMRFEVYGCKITDYPCSGMLGMVSGLISDSQITSSNQGDRNWMPENIRLVTSRSGWALPPAPHSYINEWLQIDLGEEKIVRGIIIQGGKHRENKVFMRKFKIGYSNNGSDWKMIMDDSKRKAKSFEGNNNYDTPELRTFPALSTRFIRIYPERATHGGLGLRMELLGCEVEAPTAGPTTPNGNLVDECDDDQANCHSGTGDDFQLTGGTTVLATEKPTVIDSTIQSEFPTYGFNCEFGWGSHKTFCHWEHDNHVQLKWSVLTSKTGPIQDHTGDGNFIYSQADENQKGKVARLVSPVVYSQNSAHCMTFWYHMSGSHVGTLRVKLRYQKPEEYDQLVWMAIGHQGDHWKEGRVLLHKSLKLYQVIFEGEIGKGNLGGIAVDDISINNHISQEDCAKPADLDKKNPEIKIDETGSTPGYEGEGEGDKNISRKPGNVLKTLDPRSGSKENLYFQG
29.5 nM | NRP1 trap AB (receptor) FRNDKCGDTIKIESPGYLTSPGYPHSYHPSEKCEWLIQAPDPYQRIMINFNPHFDLEDRDCKYDYVEVFDGENENGHFRGKFCGKIAPPPVVSSGPFLFIKFVSDYETHGAGFSIRYELFKRGPECSQNYTTPSGVIKSPGFPEKYPNSLECTYIVFAPKMSEIILEFESFDLEPDSNPPGGMFCRYDRLEIWDGFPDVGPHIGRYCGQKTPGRIRSSSGILSMVFYTDSAIAKEGFSANYSVLQSSVSEDFKCMEALGMESGEIHSDQITASSQYSTNWSAERSRLNYPENGWTPGEDSYREWIQVDLGLLRFVTAVGTQGAIAKKTKKKYYVKTYKIDVSSNGEDWITIKEGNKPVLFQGNTNPTDVVVAVFPKPLITRFVRIKPATWETGISMRFEVYGCKITDYPCSGMLGMVSGLISDSQITSSNQGDRNWMPENIRLVTSRSGWALPPAPHSYINEWLQIDLGEEKIVRGIIIQGGKHRENKVFMRKFKIGYSNNGSDWKMIMDDSKRKAKSFEGNNNYDTPELRTFPALSTRFIRIYPERATHGGLGLRMELLGCEVEAPTAGPTTPNGNLVDECDDDQANCHSGTGDDFQLTGGTTVLATEKPTVIDSTIQSEFPTYGFNCEFGWGSHKTFCHWEHDNHVQLKWSVLTSKTGPIQDHTGDGNFIYSQADENQKGKVARLVSPVVYSQNSAHCMTFWYHMSGSHVGTLRVKLRYQKPEEYDQLVWMAIGHQGDHWKEGRVLLHKSLKLYQVIFEGEIGKGNLGGIAVDDISINNHISQEDCAKPADLDKKNPEIKIDETGSTPGYEGEGEGDKNISRKPGNVLKTLDPRSGSKENLYFQG
